Where “and” joins values, the source holds several entries; their conditions need not be identical. Equal values may be shown once.
Legend:
[1] = biological target: Soluble human LTBR (shuLTBR) (human, UniProt P36941 31-227, limits assumed); test: SEC / light scattering
Experimental: Soluble human LTBR (shuLTBR) was prepared by limited proteolytic digestion of human LTBR-Ig and purified by chromatography on protein A Sepharose and Fractogel TMAE. […] Controls with each protein were also included. The samples were analyzed by SEC using a […] column (Phenomenex) in PBS with a Waters Alliance HPLC instrument.

human HER2-Fc [2] = biological target: T1, human HER2-Fc (human, UniProt P04626 23-652); test: ELISA on coated huHER2-Fc, HRP anti-human kappa; the number is C of the printed 4-P fit (A -0.074, B 0.86, D 1.013, R^2 0.999); x axis: Fab equivalent concentration
T1 construct: Bought from R&D Systems: homodimeric fusion of the HER2 extracellular domain and human IgG1 Fc; also called human ErbB2-Fc; rhErbB2-Fc; not shown: Fc fragment of human IgG1
Experimental: (§1) Wells of 96-well plates were coated by incubation overnight at 4-8° C. with goat antibodies against human kappa chain (80 ul/well of a 5 ug/ml solution in PBS). Wells were emptied, filled completely with a solution of PBS with 1% BSA (blocking buffer) and incubated at room temperature for 1 hour. Wells were emptied, washed twice PBS containing 0.05% Tween 20 (PBST) and filled with the samples (80 ul/well of 3× dilution series of the standard and supernatants in blocking buffer) prepared in another 96-well plate. After a 2-hour incubation at room temperature, the wells were emptied, washed three times with PBST and filled with a solution of HRP-conjugated goat pAbs anti-human kappa chain (80 ul/well of a 2000-fold dilution in blocking buffer). After 1-hour incubation, the wells were emptied and filled with a solution of HRP substrate prepared freshly. The color was left to develop for 3 minutes and was stopped by addition of an equal volume of 1N H₂SO₄. Absorbance was measured at 450 nm using a Plate Reader (SpectraMax, Molecular Devices). The data was processed and graphs were created using SoftMax Pro software.
(§2) Human and murine HER2-Fc (homodimeric fusion proteins consisting of the extracellular domain of HER2 and the Fc fragment of human IgG1) were obtained from R&D Systems. […]

IGFR-Ig = biological target: T2, IGFR-Ig (UniProt P08069 31-932); test: ELISA on IGFR-Ig, dilutions of medium of transfected CHO cells; the linker version of the control fusion is not named on the sheet
T2 construct: not shown: Ig part not specified

murine HER2-Fc = biological target: T3, murine HER2-Fc (mouse; human, UniProt P70424 23-653); test: ELISA on coated muHER2-Fc, HRP anti-human kappa; the number is C of the printed 4-P fit (A -0.025, B 0.883, D 0.935, R^2 0.999); x axis: Fab equivalent concentration
T3 construct: extracellular domain; Bought from R&D Systems; also called murine ErbB2-Fc; not shown: Fc fragment of human IgG1
Experimental: as §1, §2

murine HVEM-Ig = biological target: T4, murine HVEM-Ig (mouse, UniProt Q80WM9 39-210); test: ELISA, muHVEM-Ig coated at 0.2 ug/ml, HRP goat anti-human kappa; the number is C of the printed 4-P fit (A 0.045, B 0.716, D 1.298, R^2 0.996); Fab-Light is BIIB71F10-132 by paragraph 503
T4 construct: Expressed and purified in house
T4 sequence (looked up): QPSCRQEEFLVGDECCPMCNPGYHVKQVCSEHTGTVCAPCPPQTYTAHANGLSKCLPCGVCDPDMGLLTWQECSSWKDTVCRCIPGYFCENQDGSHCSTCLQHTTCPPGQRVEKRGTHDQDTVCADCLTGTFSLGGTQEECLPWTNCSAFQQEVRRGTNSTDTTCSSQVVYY
Experimental: as §1, with “Human and murine ErbB2-Fc were obtained from R&D Systems. Wells of” for “Wells of”, “were coated with 2 ug/ml or 0.2 ug/ml of human or murine HER2-Fc by incubation” for “were coated by incubation”, “C. with either of these six proteins (80 ul/well” for “C. with goat antibodies against human kappa chain (80 ul/well”, “of a 0.2 or 2 ug/ml solution” for “of a 5 ug/ml solution”
Human and murine HVEM-Ig were expressed and purified in house.

human LTβR-Ig = biological target: T5, human LTβR-Ig (human, UniProt P36941 31-227); test: Octet biolayer interferometry, receptor-Fc on anti-human Fc biosensor, culture supernatant
T5 construct: Expressed and purified in house; also called hLTbR-Ig; human LTBR-Ig
Experimental: (§3) Anti-human Fc-specific biosensors (Fortebio SKU 18-0001) were hydrated in OB (1×PBS supplemented with 1 mg/ml BSA, 0.05% NaN₃, and 0.02% TWEEN 20) for at least five minutes prior to assays. For each assay, the respective receptor—Fc fusion was diluted to 10 μg/ml in OB and allowed to bind to the biosensors for five minutes. The sensors were then incubated in the indicated culture supernatant for an additional five minutes, and subsequently transferred to fresh wells […].

human HVEM-Ig = biological target: T6, human HVEM-Ig (human, UniProt Q92956 39-202); test: as above
T6 construct: Expressed and purified in house; also called HVEM-Fc; Herpes virus entry mediator-Ig
T6 sequence (looked up): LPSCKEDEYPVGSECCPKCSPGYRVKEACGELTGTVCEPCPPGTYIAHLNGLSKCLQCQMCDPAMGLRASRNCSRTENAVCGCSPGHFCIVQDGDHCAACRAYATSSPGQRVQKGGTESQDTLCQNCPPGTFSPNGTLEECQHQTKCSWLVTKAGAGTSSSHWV
Experimental: as §3

human HER2-Fc [3] = biological target: T1, human HER2-Fc; test: as above
Experimental: as §3

Soluble human LTBR (shuLTBR), sequence (P36941 31-227 limits assumed): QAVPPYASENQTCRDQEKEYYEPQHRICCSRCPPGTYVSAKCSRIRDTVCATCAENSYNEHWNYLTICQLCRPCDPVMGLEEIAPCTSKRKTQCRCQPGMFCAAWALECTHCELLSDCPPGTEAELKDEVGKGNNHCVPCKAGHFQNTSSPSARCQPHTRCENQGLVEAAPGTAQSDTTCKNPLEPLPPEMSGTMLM
T3 sequence (P70424 23-653): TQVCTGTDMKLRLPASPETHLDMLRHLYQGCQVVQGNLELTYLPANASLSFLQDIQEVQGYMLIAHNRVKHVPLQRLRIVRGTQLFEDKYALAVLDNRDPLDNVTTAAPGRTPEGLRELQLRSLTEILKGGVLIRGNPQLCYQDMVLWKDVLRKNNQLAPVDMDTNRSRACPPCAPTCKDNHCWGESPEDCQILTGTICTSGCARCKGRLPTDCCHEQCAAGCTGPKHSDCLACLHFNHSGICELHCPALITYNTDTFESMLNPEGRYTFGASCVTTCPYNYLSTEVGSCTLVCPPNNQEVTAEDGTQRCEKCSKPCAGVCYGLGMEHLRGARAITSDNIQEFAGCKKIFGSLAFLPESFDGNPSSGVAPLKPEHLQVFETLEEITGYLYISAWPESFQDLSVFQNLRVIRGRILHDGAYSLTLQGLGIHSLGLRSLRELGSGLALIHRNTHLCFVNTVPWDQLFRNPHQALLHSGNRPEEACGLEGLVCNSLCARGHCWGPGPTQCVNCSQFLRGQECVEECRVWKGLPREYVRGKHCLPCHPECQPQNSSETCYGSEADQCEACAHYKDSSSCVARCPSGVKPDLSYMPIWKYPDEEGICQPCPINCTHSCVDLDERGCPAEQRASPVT
T5 sequence (P36941 31-227): as the sequence (P36941 31-227 limits assumed) above

B1: 71F10 Fab-hLIGHT fusion with the (G4S)4 linker (BIIB71F10-132) (other)
heavy: EVQLLESGGGLVQPGGSLRLSCAASGFTFSSYGMVWVRQAPGKGLEWVSSISSSGGLTWYADSVKGRFTISRDNSKNTLYLQMNSLRAEDTAVYYCASPPGIAVARDYWGQGTLVTVSSASTKGPSVFPLAPSSKSTSGGTAALGCLVKDYFPEPVTVSWNSGALTSGVHTFPAVLQSSGLYSLSSVVTVPSSSLGTQTYICNVNHKPSNTKVDKKVEPKSCDKGGGGSGGGGSGGGGSGGGGSNPAAHLTGANSSLTGSGGPLLWETQLGLAFLRGLSYHDGALVVTKAGYYYIYSKVQLGGVGCPLGLASTITHGLYKRTPRYPEELELLVSQQSPCGRATSSSRVWWDSSFLGGVVHLEAGEEVVVRVLDERLVRLRDGTRSYFGAFMV
light: DIQMTQSPSSLSASVGDRVTITCRASQGISNYLAWYQQKPGKVPKLLIYAASTLQSGVPSRFSGSGSGTDFTLTISSLQPEDVATYYCQKYNSALLTFGGGTKVEIKRTVAAPSVFIFPPSDEQLKSGTASVVCLLNNFYPREAKVQWKVDNALQSGNSQESVTEQDSKDSTYSLSSTLTLSKADYEKHKVYACEVTHQGLSSPVTKSFNRGEC
notes: Trimer of Fab-LIGHT units; also called 71F10 Fab-(G4S)4-LIGHT
[1]
  stoichiometry (shuLTBR for 1 Fab-Light trimer): 2 shuLTBR per trimer and 3 shuLTBR per trimer
Human HER2-Fc [2]
  EC50: 0.007 µg/mL
IGFR-Ig
  binding result: no binding (tested: dilution 1.00 (undiluted medium))
Murine HER2-Fc
  EC50: 0.0122 µg/mL
Murine HVEM-Ig
  EC50: 0.0263 µg/mL
Human LTβR-Ig
  koff: 0.000197 s⁻¹
Human HVEM-Ig
  koff: 0.00016 s⁻¹
Human HER2-Fc [3]
  koff: 0.000117 s⁻¹
